# According to US20160158369A1, “PHARMACEUTICAL COMPOSITION FOR RESPIRATORY ADMINISTRATION” (SEIKAGAKU CORPORATION, priority 2013, published 2016):
# Assays:
# [1] = tested on: rat antigen-induced asthma model; experiment: Rat antigen-induced asthma model, eosinophils in bronchoalveolar lavage fluid; format: in vivo; conditions: for number of eosinophils in bronchoalveolar lavage fluid, % of control: average value
# Protocol: Intraperitoneal administration of 1 mL of aluminum hydroxide gel containing ovalbumin (1 mg/mL) was performed 3 times with one day interval. 14 Days after performing the first sensitization, intraperitoneal administration of 1 mL of aluminum hydroxide gel containing ovalbumin (1 mg/mL) was performed again followed by the second sensitization. 7 Days after the second sensitization, inhalation exposure of physiological saline (10 mg/mL) containing ovalbumin was performed by using a nebulizer five times with one day interval in order to induce asthma.
# The 0.6 mg/mL prednisolone suspension was orally administered by using a sonde for oral administration under no anesthesia to have prednisolone amount of 3 mg/kg.
# Meanwhile, the test was performed with n=6 to 12.
# 24 Hours after the fifth exposure, phosphate buffered saline (2 mL) containing 0.1% bovine serum albumin heated to 37° C. was injected to a bronchus of a rat under pentobarbital anesthesia and collected thereafter. This procedure was repeated 5 times to have bronchoalveolar lavage fluid. The bronchoalveolar lavage fluid was centrifuged for 3 minutes at 200×g and room temperature. The supernatant was discarded, and the pellet was re-suspended in phosphate buffered saline (500 μL) containing 0.1% bovine serum albumin.
# Subsequently, a smear sample of the suspension was prepared followed by Diff-Quik staining. According to cell fractionation, ratio of eosinophil in white blood cells was calculated. According to integration with the number of white blood cells in bronchoalveolar lavage fluid, the number of […] in bronchoalveolar lavage fluid was calculated. Meanwhile, the number of white blood cells in bronchoalveolar lavage fluid was measured by using a blood cell counting chamber. The results are shown in FIG. 4 and the following table.
# Dose responsiveness of the compound va in an OVA sensitized rat model was determined in the same manner as (Test example B2).
# There were three doses for determination, i.e., 0.35 mg/kg, 3.5 mg/kg, and 35 mg/kg, such that the budesonide amount for administration is 0.1 mg/kg, 1 mg/kg, or 10 mg/kg.
# [2] = Drug dissociation test: polysaccharide derivative in buffer solution, 36°C, 1 week, HPLC; format: physicochemical
# Protocol: In the examples relating to drug dissociation test, the drug dissociation ratio was evaluated as described below.
# Sodium dihydrogen phosphate dihydrate (780 mg (5.0 mmol)) was dissolved in 500 mL of distilled water to give a liquid A. Separately, disodium hydrogen phosphate dodecahydrate (1.79 g (5.0 mmol)) was dissolved in 500 mL of distilled water to give a liquid B. By mixing the liquid A and liquid B at ratio of 2:3, a phosphate buffer solution of pH 7.5 was prepared.
# 0.62 g (10 mmol) of boric acid and 0.75 g (10 mmol) of potassium chloride were weighed and dissolved in 500 mL of distilled water to give a liquid C. Separately, by diluting 0.1 N sodium hydroxide solution with distilled water (×10 dilution), a liquid D was prepared.
# 50 mL of the liquid C and 7 mL of the liquid D were added to a 100 mL mess flask, and according to dilution to 100 mL with distilled water, a borate buffer solution of pH 8.0 was prepared. Furthermore, 50 mL of the liquid C and 40 mL of the liquid D were added to a 100 mL mess flask, and according to mess-up to 100 mL with distilled water, a borate buffer solution of pH 9.0 was prepared.
# Each polysaccharide derivative obtained from above was dissolved in a buffer solution at each pH so as to have a concentration of 5 mg/10 mL, and heated for 1 week in an incubator at 36° C. Then, the drug dissociation ratio during the incubation was evaluated every 24 hours by liquid chromatography (HPLC).
# The evaluation was performed by measuring the ratio between the drug amount remained in a polysaccharide derivative and the dissociated drug amount according to use of a size exclusion chromatography column (manufactured by TOSOH, TSKgel α-6000, 7.8 mmI.D.×30 cm).
# Detailed conditions for the liquid chromatography are as follows.
# Analysis time: 40 minutes
# Solution for elution: acetonitrile (for HPLC):physiological saline=1:2
# Detector: UV detector (240 nm)
Compound,"Dissociation ratio (%/day) ([2]; pH 7.4, 36°C)","drug dissociation ratio ([2]; pH 7.4, 36°C, day 0)","drug dissociation ratio ([2]; pH 7.4, 36°C, day 1)","drug dissociation ratio ([2]; pH 7.4, 36°C, day 2)","drug dissociation ratio ([2]; pH 7.4, 36°C, day 3)","drug dissociation ratio ([2]; pH 7.4, 36°C, day 4)","drug dissociation ratio ([2]; pH 7.4, 36°C, day 5)","drug dissociation ratio ([2]; pH 7.4, 36°C, day 6)","drug dissociation ratio ([2]; pH 7.4, 36°C, day 7)","Dissociation ratio (%/day) ([2]; pH 8.0, 36°C)","drug dissociation ratio ([2]; pH 8.0, 36°C, day 0)","drug dissociation ratio ([2]; pH 8.0, 36°C, day 1)","drug dissociation ratio ([2]; pH 8.0, 36°C, day 2)","drug dissociation ratio ([2]; pH 8.0, 36°C, day 3)","drug dissociation ratio ([2]; pH 8.0, 36°C, day 4)","drug dissociation ratio ([2]; pH 8.0, 36°C, day 5)","drug dissociation ratio ([2]; pH 8.0, 36°C, day 6)","drug dissociation ratio ([2]; pH 8.0, 36°C, day 7)",other results
"C[C@]12C=CC(=O)C=C1CC[C@@H]1[C@@H]2[C@@H](O)C[C@@]2(C)[C@H]1CC[C@]2(O)C(=O)CO [Prednisolone, prednisolone, reference compound]",–,–,–,–,–,–,–,–,–,–,–,–,–,–,–,–,–,–,"number of eosinophils in bronchoalveolar lavage fluid, % of control ([1]; oral 3 mg/kg, five times, 30 minutes before inducing asthma, positive control): 28.0 % of control"
Chondroitin Sulfate Introduced with 21-β-Alanyl-Betamethasone [Compound ia],–,–,–,–,–,–,–,–,–,–,–,–,–,–,–,–,–,–,"eosinophil infiltration compared to phosphate buffered saline group (in words) ([1]; Day 7 after single intratracheal administration): significantly suppressed eosinophil infiltration; number of eosinophils in bronchoalveolar lavage fluid, % of control ([1]; single intratracheal administration 100 μL, 7 days before the evaluation time point): 56.8 % of control"
Chondroitin Sulfate Introduced with 21-β-Alanyl-Budesonide (20 kDa) [Compound vb],0.9 %/day,0.3%,1.2%,2.4%,3.0%,3.6%,4.0%,5.1%,6.4%,1.5 %/day,0.2%,1.2%,1.7%,2.9%,5.5%,7.6%,8.9%,10.8%,–
Chondroitin Sulfate Introduced with Seratrodast [Compound xxiii],0.1 %/day,0.0%,0.0%,0.2%,0.3%,0.3%,0.4%,0.5%,0.6%,0.2 %/day,0.0%,0.2%,0.4%,0.6%,0.7%,0.9%,1.1%,1.3%,–
Chondroitin Sulfate Introduced with β-Alanyl-Proxyphylline [Compound xxiia],0.2 %/day,0.0%,0.0%,0.0%,0.0%,0.0%,0.0%,0.8%,1.3%,0.4 %/day,0.0%,0.0%,0.0%,1.2%,1.6%,2.0%,2.3%,2.6%,–
Hyaluronic Acid Introduced with 21-β-Alanyl-Budesonide (390 kDa) [Compound vib],4.9 %/day,3.3%,9.3%,16.3%,18.4%,22.3%,25.2%,30.7%,34.6%,7.9 %/day,0.4%,12.8%,16.1%,23.2%,36.7%,44.1%,50.2%,55.3%,–
Hyaluronic Acid Introduced with 21-β-Alanyl-Budesonide (880 kDa) [Compound via],4.9 %/day,2.0%,9.6%,16.8%,18.3%,21.7%,23.9%,30.9%,34.3%,8.2 %/day,0.9%,15.0%,20.4%,26.4%,39.9%,46.2%,52.6%,57.1%,–
Hyaluronic Acid Introduced with Proxyphylline [xxiib],0.8 %/day,0.0%,0.7%,1.3%,2.2%,2.8%,3.6%,4.4%,5.3%,2.0 %/day,0.0%,2.1%,4.6%,7.0%,8.8%,10.4%,12.6%,14.3%,–
